Reference: publication PMC7060200, “Selective Binding of HSC70 and its Co-Chaperones to Structural Hotspots on CFTR” (Scientific Reports, 2020)

Target: T1, HSC70 (Homo sapiens, UniProt P11142)
T1 construct: made in house
Assay: ELISA binding of HSC70 to immobilized CFTR NBD1 and competition by soluble peptides
Settings: immobilized NBD1 incubated at 30 °C, direct comparison with immobilized 1097-L; n = 3, p < 0.01
Method: HSC70, DJA1 and DJA2 were purified as His-tagged proteins, as described. HSC70 was also amplified by PCR with an N-terminal FLAG tag, inserted into pPROEXHTa (Invitrogen) and purified as described. HSC70 was stored in 100 mM KOAc, 20 mM HEPES-KOH pH 7.5, 5 mM MgOAC2 (buffer G), DJA1 and DJA2 in 500 mM NaCl, 20 mM HEPES-KOH pH 7.5, 5 mM MgOAC2 (buffer H). Avi-tagged CFTR NBD1 was purified as described.
For NBD1 binding, 100 nM of strep-tagged NBD1 in 100 µl of 150 mM NaCl, 50 mM Na2HPO4 pH 7.5, 1 mM ATP, and 40 µM DTT (buffer N), was bound to streptavidin plates for 1 hour at 4 °C with agitation. Plates were washed with PBST and incubated in buffer N at 30 °C in a water bath for 5 min. Then, plates were blocked in PBST containing 0.5% BSA, followed by the addition of HSC70 binding reactions, and detection as above.

T1 sequence (P11142 whole entry): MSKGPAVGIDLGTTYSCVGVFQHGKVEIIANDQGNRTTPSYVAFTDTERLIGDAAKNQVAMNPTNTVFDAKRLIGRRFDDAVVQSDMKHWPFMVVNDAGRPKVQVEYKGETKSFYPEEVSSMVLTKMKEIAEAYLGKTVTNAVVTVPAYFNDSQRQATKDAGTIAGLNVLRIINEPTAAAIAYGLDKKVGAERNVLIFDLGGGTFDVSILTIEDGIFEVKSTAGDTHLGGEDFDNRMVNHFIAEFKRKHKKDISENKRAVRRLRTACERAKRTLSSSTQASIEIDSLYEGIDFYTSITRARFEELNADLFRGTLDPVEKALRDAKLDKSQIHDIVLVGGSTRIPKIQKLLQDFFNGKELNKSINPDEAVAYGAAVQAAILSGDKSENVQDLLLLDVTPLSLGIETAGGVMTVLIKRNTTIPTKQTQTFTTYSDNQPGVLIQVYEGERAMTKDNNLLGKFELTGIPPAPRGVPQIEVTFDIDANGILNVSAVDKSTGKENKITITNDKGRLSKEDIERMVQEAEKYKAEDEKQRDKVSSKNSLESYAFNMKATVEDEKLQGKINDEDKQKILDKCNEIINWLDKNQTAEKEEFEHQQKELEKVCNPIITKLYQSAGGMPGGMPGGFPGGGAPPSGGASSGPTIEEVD

- HSC70 binding to NBD1 relative to that observed for 1097-L: 73 ± 3%
B1: NBD1: Avi-tagged CFTR NBD1, purified and immobilized on streptavidin plates (protein)
chain: TTEVVMENVTAFWEEGFGELFEKAKQNNNNRKTSNGDDSLFFSNFSLLGTPVLKDINFKIERGQLLAVAGSTGAGKTSLLMVIMGELEPSEGKIKHSGRISFCSQFSWIMPGTIKENIIFGVSYDEYRYRSVIKACQLEEDISKFAEKDNIVLGEGGITLSGGQRARISLARAVYKDADLYLLDSPFGYLDVLTEKEIFESCVCKLMANKTRILVTSKMEHLKKADKILILHEGSSYFYGTFSELQNLQPDFSSKLMGCDSFDQFSAERRNSILTETLHRFSLEGDAPVS
modifications: left off: Avi-tag, end not stated, kept
notes: Avi-tagged CFTR NBD1, purified and immobilized on streptavidin plates
